Data on 32 sequences can be found in the supplement of paper PMC10201428.

± gives the standard deviation of the averaged measurements.

Data set [1] relates to VchCAST RNA-guided transposition machinery (E. coli BL21(DE3) host, lacZ target). The experiment in a line: relative integration efficiency (T-RL orientation) vs wild-type transposon end (log2 (normalized fold change)); transposon end mutated: right end (5 bp flank + 75 bp right end); higher = more efficient transposition. The method, boiled down: (§1)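 A T7-driven effector plasmid encoding a CRISPR array, tniQ-cas8-cas7-cas6 and tnsA-tnsB-tnsC was co-transformed into E. coli BL21(DE3) together with a pUC57 mini-transposon donor holding barcoded pools of 1549 left-end or 1849 right-end variants. Transformants were plated with 0.1 mM IPTG at 37°C for 18 h. Illumina sequencing of PCR-amplified input plasmids and genomic integration junctions gave barcode abundances, and relative integration efficiency is their output/input fold change, normalised to reference barcodes and log-transformed.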

The test system is the same in data set [2]. As to the kind of experiment: relative integration efficiency (T-LR orientation) vs wild-type transposon end (log2 (normalized fold change)); transposon end mutated: right end (5 bp flank + 75 bp right end); higher = more efficient transposition. The method, boiled down:
as §1

In the case of “ACATTTGTTGATACAACCATAAAATGATAATTACTCTGATCATAGTCAGACCAACATTGCTACGACCCGTATTCGCACCGACACAACGACTATATTTACACCCATAAATTGATAATTATCAGTGGGT”, the “relative integration efficiency (log2)” value in data set [1] was -1.358 ± 0.0083; in data set [2], 1.81 ± 0.28.

In the case of “ACATTTGTTGATACAACCATAAAATGATAATTACTCTGATCATAGTCAGACCAACATTGCTACGACCCGTATTCGCACCGACACAACGACTATATTTATGGGTCACCCATAAATTGATAATTATCAG”, the “relative integration efficiency (log2)” value in data set [1] was -1.52 ± 0.14; in data set [2] it was 1.36 ± 0.37.

Turning to “ACATTTGTTGATACAACCATAAAATGATAATTACTCTGATCATAGTCAGACCAACATTGCTACGACCCGTATTCGCACCGACACAACGACTATCACCCATAAATTGATAATTATCAGTGGGTATTTA”, the “relative integration efficiency (log2)” value in data set [1] is -1.16 ± 0.15; in data set [2] it was 2.166 ± 0.019.

Take “ACATTTGTTGATACAACCATAAAATGATAATTACTCTGATCATAGTCAGACCAACATTGCTACGACCCGTATTCGCACCGACACAACGCACCCATAAATTGATAATTATCAGTGGGTATTTAACTAT”: the “relative integration efficiency (log2)” value in data set [1] was -1.4 ± 0.054; in data set [2], 1.8 ± 0.1.

As for “ACATTTGTTGATACAACCATAAAATGATAATTACTCTGATCATAGTCAGACCAACATTGCTACGACCCGTATTCGCACCGACACACCCATAAATTGATAATTATCACACCCATAAATTGATATTGCC”, the “relative integration efficiency (log2)” value in data set [1] was -2.59 ± 0.21; in data set [2], 0.795 ± 0.3.

As for “ACATTTGTTGATACAACCATAAAATGATAATTACTCTGATCATAGTCAGACCAACATTGCTACGACCCGTATTCGCACCGACACACCCATAAATTGATAATTATCAGTGGGTATTTAACTATAACGC”, the “relative integration efficiency (log2)” value in data set [1] was -1.05 ± 0.17; in data set [2], 2.24 ± 0.21.

As to “ACATTTGTTGATACAACCATAAAATGATAATTACTCTGATCATAGTCAGACCACACCCATAAATTGATAATTATCACACCCATAAATTGATATTGCACATTGCTACGACCCGTATTCGCACCGACAC”, the “relative integration efficiency (log2)” value in data set [1] is -4.6 ± 0.057; in data set [2] it was -2.36 ± 0.32.

“ACATTTGTTGATACAACCATAAAATGATAATTACTCTGATCATAGTCAGACCACACCCATAAATTGATAATTATCAGTGGGTATTTAACTATAACGACATTGCTACGACCCGTATTCGCACCGACAC”: the “relative integration efficiency (log2)” value is -0.22 ± 0.33 in data set [1] and 2.27 ± 0.15 in data set [2].

In the case of “ACATTTGTTGATACAACCATAAAATGATAATTACTCTGATCATAGTCAGCACCCATAAATTGATAATTATCACACCCATAAATTGATATTGCACCAACATTGCTACGACCCGTATTCGCACCGACAC”, the “relative integration efficiency (log2)” value in data set [1] was -4.51 ± 0.36; in data set [2] it was -0.456 ± 0.19.

With “ACATTTGTTGATACAACCATAAAATGATAATTACTCTGATCATAGTCAGCACCCATAAATTGATAATTATCAGTGGGTATTTAACTATAACGACCAACATTGCTACGACCCGTATTCGCACCGACAC”, the “relative integration efficiency (log2)” value in data set [1] was -2.61 ± 0.47; in data set [2], 0.537 ± 0.24.

Turning to “ACATTTGTTGATACAACCATAAAATGATAATTACTCTGATCATCACCCATAAATTGATAATTATCACACCCATAAATTGATATTGCAGTCAGACCAACATTGCTACGACCCGTATTCGCACCGACAC”, the “relative integration efficiency (log2)” value in data set [1] was -4.28 ± 0.15; in data set [2] it was -2.15 ± 0.28.

For the sequence “ACATTTGTTGATACAACCATAAAATGATAATTACTCTGATCATCACCCATAAATTGATAATTATCAGTGGGTATTTAACTATAACGAGTCAGACCAACATTGCTACGACCCGTATTCGCACCGACAC”, the “relative integration efficiency (log2)” value in data set [1] is -3.53 ± 0.084; in data set [2] it was -0.42 ± 0.11.

“ACATTTGTTGATACAACCATAAAATGATAATTACTCTGCACCCATAAATTGATAATTATCACACCCATAAATTGATATTGCATCATAGTCAGACCAACATTGCTACGACCCGTATTCGCACCGACAC”: the “relative integration efficiency (log2)” value in data set [1] was -3.62 ± 0.15; in data set [2], 0.55 ± 0.061.

As to “ACATTTGTTGATACAACCATAAAATGATAATTACTCTGCACCCATAAATTGATAATTATCAGTGGGTATTTAACTATAACGATCATAGTCAGACCAACATTGCTACGACCCGTATTCGCACCGACAC”, the “relative integration efficiency (log2)” value in data set [1] is -2.05 ± 0.21; in data set [2], 0.872 ± 0.43.

Consider “ACATTTGTTGATACAACCATAAAATGATAATTACTGCCATAAATTGATAATTATCACACCCATAAATTGATATTGCCTCTGATCATAGTCAGACCAACATTGCTACGACCCGTATTCGCACCGACAC”, for which the “relative integration efficiency (log2)” value was -0.109 ± 0.19 in data set [1] and -0.602 ± 0.32 in data set [2].

Consider “ACATTTGTTGATACAACCATAAAATGATAATTACTGGGATAAATTGATAATTATCACACCCATAAATTGATATTGCCTCTGATCATAGTCAGACCAACATTGCTACGACCCGTATTCGCACCGACAC”, for which the “relative integration efficiency (log2)” value in data set [1] is -0.454 ± 0.059; in data set [2], -0.993 ± 0.59.

Turning to “ACATTTGTTGATACAACCATAAAATGATAATTAGAAACCATAATTGATAATTATCACACCCATAAATTGATATTGCCTCTGATCATAGTCAGACCAACATTGCTACGACCCGTATTCGCACCGACAC”, the results for the “relative integration efficiency (log2)” value in data set [1] and in data set [2] were -3.59 ± 0.08 and -2.38 ± 0.52, respectively.

Consider “ACATTTGTTGATACAACCATAAAATGATAATTAGAAACCATACGCTGAAATAATCACACCCATAAATTGATATTGCCTCTGATCATAGTCAGACCAACATTGCTACGACCCGTATTCGCACCGACAC”, for which the “relative integration efficiency (log2)” value is -3.5 ± 0.081 in data set [1] and -1.54 ± 0.65 in data set [2].

“ACATTTGTTGATACAACCATAAAATGATAATTAGACCCCATAATTGATAATTATCACACCCATAAATTGATATTGCCTCTGATCATAGTCAGACCAACATTGCTACGACCCGTATTCGCACCGACAC”: the entries for the “relative integration efficiency (log2)” value in data set [1] and in data set [2] were -3.4826 ± 0.0031 and -3.27 ± 0.54, respectively.

Take “ACATTTGTTGATACAACCATAAAATGATAATTAGTCCCATAAATTGATAATTATCACACCCATAAATTGATATTGCCTCTGATCATAGTCAGACCAACATTGCTACGACCCGTATTCGCACCGACAC”: the “relative integration efficiency (log2)” value in data set [1] is -0.921 ± 0.049; in data set [2] it was -0.924 ± 0.37.

Take “ACATTTGTTGATACAACCATAAAATGATAATTAGTGGCATAAATTGATAATTATCACACCCATAAATTGATATTGCCTCTGATCATAGTCAGACCAACATTGCTACGACCCGTATTCGCACCGACAC”: the figures for the “relative integration efficiency (log2)” value in data set [1] and in data set [2] were -1.91 ± 0.16 and -1.87 ± 0.24, respectively.

Consider “ACATTTGTTGATACAACCATAAAATGATAATTAGTGGGTATTTAACTATTAATTCACACCCATAAATTGATATTGCCTCTGATCATAGTCAGACCAACATTGCTACGACCCGTATTCGCACCGACAC”, for which the “relative integration efficiency (log2)” value was -3.76 ± 0.071 in data set [1] and -3.02 ± 0.35 in data set [2].

Turning to “ACATTTGTTGATACAACCATAAAATGATAATTAGTGGGTATTTAACTATTAATTCAGTGGGTATTTAACTATAACGCTCTGATCATAGTCAGACCAACATTGCTACGACCCGTATTCGCACCGACAC”, the “relative integration efficiency (log2)” value in data set [1] was -2.37 ± 0.12; in data set [2], 1.17 ± 0.31.

As for “ACATTTGTTGATACAACCATAAAATGATAATTATAATTATCATTTTATGGTTGTCACAACCATAAAATGATAATTACTCTGATCATAGTCAGACCAACATTGCTACGACCCGTATTCGCACCGACAC”, the “relative integration efficiency (log2)” value was -3.2 ± 0.33 in data set [1] and -1.19 ± 0.18 in data set [2].

Turning to “ACATTTGTTGATACAACCATAAAATGATAATTATAATTATCATTTTATGGTTGTCATAATTATCATTTTATGGTTGCTCTGATCATAGTCAGACCAACATTGCTACGACCCGTATTCGCACCGACAC”, the “relative integration efficiency (log2)” value is -2.61 ± 0.67 in data set [1] and 0.158 ± 0.76 in data set [2].

“ACATTTGTTGATACAACCATAAAATGATAATTCAACCCATAAATTGATAATTATCACACCCATAAATTGATATTGCCTCTGATCATAGTCAGACCAACATTGCTACGACCCGTATTCGCACCGACAC”: the “relative integration efficiency (log2)” value in data set [1] stood at 0.0959 ± 0.067; in data set [2], 0.119 ± 0.3.

As to “ACATTTGTTGATACAACCATAAAATGATAATTCACAAACGCCCGGTCGCCGGCGACACAAACGCCCGGTCGCGGTAAGAGGATCATAGTCAGACCAACATTGCTACGACCCGTATTCGCACCGACAC”, the “relative integration efficiency (log2)” value was -1.9 ± 0.14 in data set [1] and 1.4 ± 0.079 in data set [2].

For “ACATTTGTTGATACAACCATAAAATGATAATTCACACCATAAATTGATAATTATCACACCCATAAATTGATATTGCCTCTGATCATAGTCAGACCAACATTGCTACGACCCGTATTCGCACCGACAC”, the “relative integration efficiency (log2)” value in data set [1] was -0.218 ± 0.014; in data set [2] it was -0.473 ± 0.22.

Regarding “ACATTTGTTGATACAACCATAAAATGATAATTCACCCATAAATTGATAATTATCACACCCACATTTAACTATAACGCTCTGATCATAGTCAGACCAACATTGCTACGACCCGTATTCGCACCGACAC”, the “relative integration efficiency (log2)” value in data set [1] was -2.03 ± 0.22; in data set [2], 1.31 ± 0.058.

In the case of “ACATTTGTTGATACAACCATAAAATGATAATTCACCCATAAATTGATAATTATCACACCCATAAATTGATATTGCCTCTGATCATAGTCAGACCAACATTGCTACGACCCGTATTCGCACCGACACT”, the “relative integration efficiency (log2)” value in data set [1] is -1.27 ± 0.026; in data set [2], -0.727 ± 0.39.

Consider “ACATTTGTTGATACAACCATAAAATGATAATTCACCCATAAATTGATAATTATCACACCCCAATTTAACTATAACGCTCTGATCATAGTCAGACCAACATTGCTACGACCCGTATTCGCACCGACAC”, for which the “relative integration efficiency (log2)” value was -1.88 ± 0.17 in data set [1] and 1.7 ± 0.066 in data set [2].

Turning to “ACATTTGTTGATACAACCATAAAATGATAATTCACCCATCAATTGATAATTATCACACCCCAATTTAACTATAACGCTCTGATCATAGTCAGACCAACATTGCTACGACCCGTATTCGCACCGACAC”, the “relative integration efficiency (log2)” value is -3.27 ± 0.064 in data set [1] and -0.128 ± 0.16 in data set [2].
